This passage reports stoichiometry N results from publication PMC9520032.

Usually stoichiometry N stands for the number of molecules, sites or subunits per partner or assembly.

The assay has as its target Vibrio cholerae cytolysin E289A mutant, mature form (Vibrio cholerae). The assay is described as follows: cryo-EM structure.

As for “Vibrio cholerae cytolysin E289A mutant, mature form (natural protein)”, the stoichiometry N came to 7.
